Data published in paper PMC8017925, “Structural basis for differential recognition of phosphohistidine-containing peptides by 1-pHis and 3-pHis monoclonal antibodies” (Proceedings of the National Academy of Sciences of the …, 2021).

Molecular target: ACLYana-3-pTza peptide (AGAG-3-pTza-AGAG)
Assay: BLI binding kinetics of 3-pHis Fabs with cognate pTza peptide
Procedure: Biolayer interferometry (BLI) studies were performed to determine the relative affinity of pHis Fabs to in situ phosphorylated His peptides versus the phosphomimetic substrates. The N-terminally biotinylated peptides were immobilized on streptavidin biosensors and the rate of association (ka) and dissociation (kd) were determined by varying the pHis Fab concentration. Equilibrium dissociation constants (KD) were determined by fitting the experimental data to a 1:1 Langmuir binding model. ACLYana-1-pTza and ACLYana-3-pTza peptides were used to determine affinity to 1-pHis and 3-pHis Fabs, respectively (Fig. 3 A–E and Table 1). […] The two isomers were separated from each other by passing the reaction through affinity columns containing 1-pHis mAbs using SC1-1 or SC50-3 IgGs or 3-pHis mAbs using SC39-4, SC44-8, and SC56-2 IgGs. The eluates thus contained either predominantly 1-pHis or 3-pHis peptides. These peptides were used to determine the affinity to their respective isomer class of pHis Fabs (Fig. 3 F–J, Table 1, and SI Appendix, Fig. S5). […] This experimental observation is well supported by the higher number of hydrogen bonds that support the SC44-8:3-pTza interaction compared to other pHis Fabs (SI Appendix, Table S5). […] There are at least three reasons for the lower affinity of the mAbs for pHis peptides compared to pTza peptides: The continuous hydrolysis of phosphate from the pHis peptides during the course of the experiment (SI Appendix, Fig. S6), a reduction in the number of hydrogen bond interactions due to one less nitrogen in the imidazole ring compared to triazolyl ring (Fig. 4 and SI Appendix, Fig. S8), and inherently different electronic properties of the imidazole and triazolyl rings in His and Tza, respectively ([20]).
Fig. 3. Binding kinetics of pHis Fabs with cognate pTza and pHis peptides. BLI studies of immobilized peptides (ACLYana-1/3-pTza and phosphorylated ACLYana) with varying concentrations of the pHis Fabs were carried out in triplicate on an Octet Red96e instrument (FortéBio). SC1-1 (A) and SC50-3 (B) pHis Fab interaction with their ACLYana-1-pTza peptides. SC39-4 (C), SC44-8 (D), and SC56-2 (E) pHis Fabs interactions with ACLYana-3-pTza peptides. SC1-1 (F), SC50-3 (G), SC39-4 (H), SC44-8 (I), and SC56-2 (J) pHis Fabs interactions with their affinity-purified ACLYana-pHis peptides are represented, Right. The experimental data are represented in the black dashed lines and the nonlinear least-squares fitting was represented in the red continuous lines. The χ^2 for the goodness of fit is under 1.0 for the all the plots.
The binding kinetics of pHis Fabs with the peptides (pTza and pHis) were evaluated with an Octet RED96e (FortéBio). Streptavidin-coated biosensors (FortéBio) were presoaked in buffer containing 50 mM Hepes pH 8.0, 150 mM NaCl, 0.05% Tween-20, and 0.2% BSA for 15 min. The biotinylated pTza peptides or pHis peptides (20 nM) with and without phosphoramidate treatment were coated onto these streptavidin biosensors and analyzed for their binding to varying concentrations of the pHis Fabs with an association time of 120 s and dissociation time of 200 s. The entire set of experiments was repeated three times. The data were analyzed using the Octet software (FortéBio) and the rates of association and dissociation were obtained by global fitting data to the 1:1 Langmuir interaction model.

[1] = BLI, immobilized biotinylated ACLYana-3-pTza, 1:1 Langmuir global fit, triplicate

Kd (BLI Octet RED96e, N-terminally biotinylated peptide (20 nM) on streptavidin biosensors, varying Fab concentration, 50 mM Hepes pH 8.0, 150 mM NaCl, 0.05% Tween-20, 0.2% BSA, association 120 s, dissociation 200 s, global fit 1:1 Langmuir, triplicate): 0.235 nM
dissociation rate, times slower than the other pHis Fabs (BLI, 3-pTza peptide): 70 times
ka [1]: 156000 ± 457 M⁻¹ s⁻¹
kd [1]: 3.66e-05 ± 7.5e-07 s⁻¹
B1: SC44-8: Fab of rabbit 3-pHis-specific monoclonal antibody with proclivity for GpHAGA motif (antibody, V domains shown)
VH: QSVKESGRGLVQPGGSLTLTCTASGFSIDSYGFSWVRQAPGKGLEHIGYLTAGGRAFYASWAKSRSTITRNTNENTVTLKMTSLTAADTATYFCAKLGSGNPVAIWGPGTLVTVSS
VL: QVLTQTPSFTSAAVGGTVTINCQSSQSVWRNKNLAWYQQKPGQPPKRLIYAIATLDSGVPSRFSGSGSGTQFTLTISDVQCDDAATYYCVGHYGSENDAYYAFGGGTEVVVK
